The DeepSol protein solubility set

assay: soluble on expression in E. coli; label from the status in PepcDB or PDB records

Row | Sequence | soluble on expression in E. coli
1 | MSTSNAQSGRAAAIARRNAQVKGKGYTASAAPAAPRKPAAPVAEPVVAAAPAPSQPSRSRRKVSVAPTATPAASAAGREAAKLKRQQQKNGKSSAGAANAMPHPKAKAKQKPEEPIVEPRQAKAEKPTKRSERRTGVKPQVASQQPSGRLQSKAYRKAQAKGKAGQEAFKSNGSSQSGAKAKLANPDASTREIAQQVRAERCAQGKTCSTGGSRPMRKRRNAKEAPQKVGESQTLHGQSVSGTQVGQGEKKMTGSESGACQLVSGTEYLGAEEFSKNCDVQPTPQPAKVTQTQTTRGQVVSGSTKVGRSDKMTGNETGTCSAITGTEYLPADQSKMYCGETPAKSKATGFSVMSQATQKSEQKVTGGDSRKSQSTTFKPKNPASAPHKVMPSQTAKGNTTTGSQVGRLESVTGGERGSCHAVTGTGYQGAEEAKACDMPMTETADKVTASGTAGGQKVTGDRSGAYYGMTGAEAGDCKTITGTSYTGTEQFQFCSVDEQNEMKVRQRKGANPSISGVQPGPQGLTGAQKGACELVTGSHYQGGDQTAMVCDSTNAAAPGESDFPAMIGQAQPAFSTNEVEPMVDEGSKITGDGWDRGSKVTGTDGPWAAQRNASIRGVAGQSPMGASQYRPVNNEVPMSPITGSSGNTDTGAKVTLSGGARA | not soluble
2 | VFIDESKEHLQTCNEKLLLLEKDPTDLQLVHDIFRAAHTLKGMSATMGYTDLAHLTHLLENVLDAIRNGDMEVTSDWLDILFEALDHLETMVQSIIDGGDGKRDISEVSAKLDVNGAHAESAASAEPAEAQSSASDWEYDEFERTVIQEAEEQGFKRYEIKISLNENCMLKAVRVYMVFEKLNEVGEVAKTIPSAEVLETEDFGTDFQVCFLTHQSAEDIEQLINGVSEIEHVEVIQGAPLTSAEKPEESKQEDSPAAAVPANEEKQKQPAKNDEQAKHSAGGSKTIRVNIDRLDSLMNLFEELVIDRGRLEQIAKELEHNELTETVERMTRISGDLQSIILNMRMVPVETVFNRFPRMIRQLQKELNKKIELSIIGAETELDRTVIDEIGDPLVHLIRNSIDHGIEAPETRLQKGKPESGKVVLKAYHSGNHVFIEVEDDGAGLNRKKILEKPLERVITEKEAETLEDNQIYELIFAPGFSTADQISDISGRGVGLDVVKNKLESLGGSVSVKSAEGQGSLFSIQLPLTLSIISVLLIKLEEETFAIPISSIIETAVIDRKDILQTHDREVIDFRGHIVPVVYLKEEFKIEDTRKDAEQLHIIVVKKGDKPTAFVVDSFIGQQEVVLKSLGDYLTNVFAISGATILGDGEVALIID | not soluble
3 | MGSDKIHHHHHHMKYYICVCVFLLLNACNSDFSTNQEDIKYPSDKEKSKSNMEASSKEEDPNKKIKNTLLNDLINLIEIANEHKEKYEKRMQEEPSDQYGILAFQELDLSVGKISEDTPQSKKFRKNTYSPLSAIDVNKLKDLSEIIRNSGQIQGLFNIFNRFGGIFDDSLNHVYSKKDILGGLEILDLDKLKNSFEKLLSIKETFSKMLNQLLLDYKNDKDHIRTETNKLKSHTTALFEQLDKKEDEAYEPKNQIFSISNL | not soluble
4 | MGSDKIHHHHHHMIERVINNIEKVIKGKREAIEVVVAALLAKGHVLMEDVPGVGKTMLARALALSLGVDFRRVQFTPDLLPTDLTGLYIYDRKKEDFVFKKGPVFTDVLLADEINRATPRTQSALLEAMAEGQVTVDGVTHRLSERFFVIATQNPIEYEGTFPLPEAQLDRFMICVKMGYPDEEAEIQMLTSQEKEHPISQLEPVMNPDELSELQKKVRNVFVSDEVKKYIVDIASATRNHPSLLLGMSPRGSIALMHFSMALAFMDGRDFTLPDDVKRAAVYVIPHRVIQSAESKLKREKKEDIVREILDRVKVVK | not soluble
5 | MFNLKREHFRDDYLYRFYQYGDTHSKIPSNLYKVLARKLDMISASENINDLRSPPANHLELLEPKENKIYSIRVNKQYCLIFKYENNEVNNLYLDPHSYNL | not soluble
6 | MATIDLQKKSVKIVLEKKQLTKVTARVGLVLDITGSMRPLYKNGTVQNVVERILAVADQFDDNGLLDVWVYDNEFPRLKPVSEKDFPGYVDREILNNDRLHKFGRNDEPPVMKDVLRNMLRRNRARILLSLFLSMTGAVKSQSNRLIEASSDKPVFWQFVGIGNGNFDFLNKLDTLEGRVIDNTNFLHIEEIDRISDDELYDALLAEFPFWLKEAKEKGIVREQEPPAEKPKKKGFFSRLFSKLEHHHHHH | soluble
7 | MDLDKLVHQPTRLELFAYLYRHGESSFGDLTDELDLTEGNLSSHLQRMEDADAVEVRKEFVDKRPHTTAVLTEDGEAMFEDHVQTLQGLIDGLELEHHHHHH | not soluble
